# Test results published in IntAct's records for PubMed 24895401.
# B1: Ras GTPase-activating-like protein IQG1 (Saccharomyces cerevisiae), Q12280 (parent)
# chain: MTAYSGSPSKPGNNNSYLNRYVENLGTNVTPPLRPQSSSKINSSLNIASPSHLKTKTSASNSSATILSKKVESSVSKLKPSLPNKLVGKYTVDLSNYSKIELRYYEFLCRVSEVKIWIEAVIEEALPSEIELCVGDSLRNGVFLAKLTQRINPDLTTVIFPAGDKLQFKHTQNINAFFGLVEHVGVPDSFRFELQDLYNKKNIPQVFETLHILISMINKKWPGKTPALTNVSGQISFTKEEIAACKKAWPRIRDFKSLGTNINTAPASPEEPKEKRSGLIKDFNKFERPNIPVEEILITPRKNITDANCSDFSNTPSPYNEAPKMSNLDVVVEKRKFTPIEPSLLGPTPSLEYSPIKNKSLSYYSPTISKYLTYDTEFYTRRSRAREEDLNYYQTFKYSPSHYSPMRRERMTEEQFLEKVVQLQNICRGVNTRFNLYIQKRLLNLFEQDILRFQACLRGNKFRVLSSMYLPIRRAKIDVPHVEAIQSRIKGSRIRYKYDKLKFTLSRFSCTVELLQAYCRSKLLKTTVNTKLNDIEISHYPLTKLQSYMRASYVRKKVMSLNTKLNDERESIMKFSAIIRGNVVRCSEDAILSAVHDVHKENISKLQSLIRGIFTRSCLASIIYSLGKENCNIIQLSACIRGNAVRHKVQSLFAPENNLSETVHDLQGLVRGILVRYTLDLVDDIVEYNNLALFQAFSRGALVRESLDQKSSFYKRNVRSVIMIQSWIRKSLQRSAYLELLDCPNPSLWAVKKFVHLLNGTATIEEVQNQLESCQASLDSENMKKERLLKSIRQQLNINGVLDKFGLLKDKDHELGISDSTIPKSKYQKYEKLFYMLQVDPSYWKLLYLKEPEFVAKNVYMTFGTVNQRMNDRERSYFTRFVCEMLQNAINEAPSIESFLDNRSQFWQTILQDFLRRESPEFFSIIVPVLDYLSDPVVDFESDPYKIYQEIHGFSSPQHCSPVDDASTKNKFIDNLRCLWHAIEMVAEIYTRKVHTIPVEIRYLCTKIFCYAADKNIEEIDSLRAISSILVNVFVSEYLVNREYYGYKDSNVQKNNQKIDILMKSLATVFEIKNFDGFLDPLNQYANEIKPHIKDVLYNVLVDPEYEQEGDRLIYLDMVSPSPKLELLTEKVLEISGKFEEYLNEFPEADILHDILEKNLDNSSFPRSGRVTLELDASAYRFLVSDDKMRKIYDQVKRAFVYMMQIEDVDTNLYDLSISTILPQDEPNFANFLEQNPKIRDDPMIQKLKPLKYFTLKNVTLKKIHELESTGTFCSSDNKLQNFLNDIANTIKNPNYAIDYVTQEIYITKETLTKISEMNHSLDIELSRLKKHVDHTIKDFQKAKDFSPVHKSKFGNFKNAVKKVQGRERSELQGMKFKWNTKQLYERGVLKTIRGEKLAELTVKVFGSSGPKFPDIIFKISTSDGSRFGIQMIDKRKGPDKRYSDDVDSFSFKDLIKTQVEPKIETWKLFHSNVVVNNSQLLHLIVSFFYKRNAL
# partner: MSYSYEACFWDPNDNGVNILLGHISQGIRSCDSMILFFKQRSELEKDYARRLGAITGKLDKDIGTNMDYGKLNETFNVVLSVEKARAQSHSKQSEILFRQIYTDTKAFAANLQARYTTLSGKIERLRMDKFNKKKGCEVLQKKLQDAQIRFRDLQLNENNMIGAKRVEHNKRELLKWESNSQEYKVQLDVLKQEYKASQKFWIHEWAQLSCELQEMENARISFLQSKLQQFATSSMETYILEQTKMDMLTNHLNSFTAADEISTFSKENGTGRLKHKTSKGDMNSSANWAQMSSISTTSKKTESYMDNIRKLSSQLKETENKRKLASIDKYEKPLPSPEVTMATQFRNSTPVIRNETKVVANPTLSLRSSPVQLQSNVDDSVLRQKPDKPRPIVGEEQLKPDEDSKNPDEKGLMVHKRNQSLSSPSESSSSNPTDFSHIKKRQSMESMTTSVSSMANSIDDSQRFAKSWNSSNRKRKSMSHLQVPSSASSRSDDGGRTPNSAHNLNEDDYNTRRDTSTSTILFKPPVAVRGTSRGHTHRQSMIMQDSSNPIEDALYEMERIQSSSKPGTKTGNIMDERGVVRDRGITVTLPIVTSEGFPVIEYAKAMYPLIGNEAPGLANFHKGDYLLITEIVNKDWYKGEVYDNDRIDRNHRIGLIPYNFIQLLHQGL
# Variants of: B1
# Conditions: with cyk2_yeast HOF1, Q05080
row,effect of a mutation on the interaction,Variant
1,with no effect,Q725S
2,disrupting interaction strength,Q667S;Q695S
3,disrupting interaction strength,Q667S
4,disrupting interaction strength,Q695S
